Where no end group is shown, it is not given here. [ ]: non-standard residue; d: D form. Cit = NC(=O)NCCC[C@H](N)C(=O)O
What was measured:
Assay in all cases: fluorescence polarisation; competition: serial dilution of peptide from 500 μM against 20 nM TAMRA-HA for 100 nM HLA-DRB1 protein with 20 nM HLA-DM; 100 mM trisodium citrate pH 5.4, 50 mM NaCl, 5 mM EDTA; 37 °C, read after 24, 48 and 72 h
[1] = target: HLA-DRB1*04:01 protein (HLA-DRA*01:01/HLA-DRB1*04:01) (human)
[2] = target: HLA-DRB1*04:05 protein (human)
[3] = target: HLA-DRB1*04:04 protein (human)
[4] = target: HLA-DRB1*01:01 protein (human)
[5] = target: HLA-DRB1*14:02 protein (human)

B1: TNC1014,1016cit peptide (peptide)
peptide: D[Cit]Y[Cit]LNYSLPTG
- IC50 [1]: 1100 nM
- fold weaker affinity against HLA-DRB1*01:01, *04:01 and *14:02 [2]: > 4 fold
- IC50 [3]: > 300000 nM
- IC50 [4]: 800 nM
- IC50 [5]: 1300 nM
